Data taken from publication PMC5093072 (Structure (London, England : 1993), 2016).

B1: double mutant T2D/A4V-SOD1, unmodified (enzyme)
chain: not shown
modifications: for SPR: biotinylated on one subunit (EZ-link NHS-LC-LC-biotin)
B2: glutathionylated T2D/A4V-SOD1 (GS-T2D/A4V-SOD1), C111-glutathionylation enriched species (enzyme)
chain: not shown
modifications: glutathionylation at C111 (enriched species); for SPR: biotinylated on one subunit (EZ-link NHS-LC-LC-biotin)

Experiments:
SPR = molecular target: the molecule itself; assay: SPR
SEC = molecular target: the molecule itself; assay: SEC

Protein | koff (SPR) [s⁻¹] | stoichiometry N (SEC)
B1 | 0.000156 | 2
B2 | 0.000161 | 2
